In article PMC2756588:

How the values were obtained:
Test in all cases: SPOT array
Abp1, P15891 = biological target: T1, Abp1, P15891; details: median of control spots 935
T1 sequence (P15891 535-592, looked up): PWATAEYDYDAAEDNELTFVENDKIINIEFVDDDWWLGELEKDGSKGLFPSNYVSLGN

Bbc1, P47068 = biological target: T2, Bbc1, P47068; details: median of control spots 796
T2 sequence (P47068 1-78, looked up): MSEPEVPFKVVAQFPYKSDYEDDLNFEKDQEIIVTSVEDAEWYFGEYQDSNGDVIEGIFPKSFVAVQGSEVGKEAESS

Bem1-1, P29366 = details: median of control spots 4282
Sequence of Bem1-1, P29366 (P29366 55-141): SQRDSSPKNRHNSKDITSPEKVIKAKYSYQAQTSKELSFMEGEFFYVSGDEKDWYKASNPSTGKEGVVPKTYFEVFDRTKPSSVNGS

Bem1-2, P29366 = details: median of control spots 4347
Sequence of Bem1-2, P29366 (P29366 139-227): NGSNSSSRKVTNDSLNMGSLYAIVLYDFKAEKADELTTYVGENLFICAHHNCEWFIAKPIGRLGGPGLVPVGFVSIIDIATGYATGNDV

Boi1, P38041 = biological target: T3, Boi1, P38041; details: median of control spots 1162
T3 sequence (P38041 1-86, looked up): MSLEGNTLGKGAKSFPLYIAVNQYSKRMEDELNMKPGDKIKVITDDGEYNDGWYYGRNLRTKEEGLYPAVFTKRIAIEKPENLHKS

Boi2, P39969 = biological target: T4, Boi2, P39969; details: median of control spots 1161
T4 sequence (P39969 32-116, looked up): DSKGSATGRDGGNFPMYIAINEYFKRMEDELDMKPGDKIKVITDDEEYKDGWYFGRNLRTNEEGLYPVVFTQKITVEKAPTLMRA

Bud14, P27637 = biological target: T5, Bud14, P27637; details: median of control spots 956
T5 sequence (P27637 247-328, looked up): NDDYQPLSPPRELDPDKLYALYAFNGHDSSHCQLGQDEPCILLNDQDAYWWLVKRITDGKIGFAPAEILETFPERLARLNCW

Bzz1-1, P38822 = biological target: T6, Bzz1-1, P38822; details: median of control spots 4446
T6 sequence (P38822 478-572, looked up): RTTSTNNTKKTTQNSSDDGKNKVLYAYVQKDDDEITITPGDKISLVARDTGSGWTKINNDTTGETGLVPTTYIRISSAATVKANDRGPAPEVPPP

Bzz1-2, P38822 = biological target: T7, Bzz1-2, P38822; details: median of control spots 4538
T7 sequence (P38822 568-633, looked up): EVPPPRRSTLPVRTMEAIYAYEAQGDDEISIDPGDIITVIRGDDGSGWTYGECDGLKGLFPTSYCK

Cdc25, P04821 = biological target: T8, Cdc25, P04821; details: median of control spots 969
T8 sequence (P04821 50-136, looked up): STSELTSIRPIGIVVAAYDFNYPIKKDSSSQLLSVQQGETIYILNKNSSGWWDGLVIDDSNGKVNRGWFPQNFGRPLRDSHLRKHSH

Cyk3, Q07533 = biological target: T9, Cyk3, Q07533; details: median of control spots 1451
T9 sequence (Q07533 1-83, looked up): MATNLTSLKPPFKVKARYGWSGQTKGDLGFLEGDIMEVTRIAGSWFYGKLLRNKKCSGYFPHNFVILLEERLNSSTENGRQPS

Fus1, P11710 = biological target: T10, Fus1, P11710; details: median of control spots 1200
T10 sequence (P11710 432-512, looked up): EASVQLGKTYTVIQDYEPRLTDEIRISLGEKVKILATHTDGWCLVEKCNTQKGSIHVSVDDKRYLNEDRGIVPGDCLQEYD

GST = details: median of control spots 978
Hof1, Q05080 = biological target: T11, Hof1, Q05080; details: median of control spots 4086
T11 sequence (Q05080 590-669, looked up): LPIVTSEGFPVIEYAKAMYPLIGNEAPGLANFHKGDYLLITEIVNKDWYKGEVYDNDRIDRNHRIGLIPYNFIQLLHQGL

Hse1, P38753 = biological target: T12, Hse1, P38753; details: median of control spots 1727
T12 sequence (P38753 208-285, looked up): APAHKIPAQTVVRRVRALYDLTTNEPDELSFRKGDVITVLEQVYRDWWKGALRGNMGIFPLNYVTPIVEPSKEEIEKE

Lsb1, P53281 = biological target: T13, Lsb1, P53281; details: median of control spots 388
T13 sequence (P53281 45-122, looked up): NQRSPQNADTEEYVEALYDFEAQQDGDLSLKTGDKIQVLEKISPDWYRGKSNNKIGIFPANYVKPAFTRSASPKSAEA

Lsb3, P43603 = biological target: T14, Lsb3, P43603; details: median of control spots 406
T14 sequence (P43603 385-451, looked up): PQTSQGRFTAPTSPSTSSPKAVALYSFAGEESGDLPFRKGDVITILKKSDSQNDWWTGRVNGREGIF

Lsb4, P32793 = biological target: T15, Lsb4, P32793; details: median of control spots 397
T15 sequence (P32793 402-468, looked up): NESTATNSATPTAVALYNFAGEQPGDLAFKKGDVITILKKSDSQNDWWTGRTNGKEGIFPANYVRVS

Myo3, P36006 = details: median of control spots 468
Myo5, Q04439 = biological target: T16, Myo5, Q04439; details: median of control spots 471
T16 sequence (Q04439 1072-1160, looked up): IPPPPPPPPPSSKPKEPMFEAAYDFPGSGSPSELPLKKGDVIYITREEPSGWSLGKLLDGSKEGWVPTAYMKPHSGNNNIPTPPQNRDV

Nbp2, Q12163 = biological target: T17, Nbp2, Q12163; details: median of control spots 357
T17 sequence (Q12163 103-180, looked up): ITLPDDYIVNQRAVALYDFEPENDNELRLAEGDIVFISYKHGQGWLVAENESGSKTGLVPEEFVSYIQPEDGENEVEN

Pex13, P80667 = biological target: T18, Pex13, P80667; details: median of control spots 1341
T18 sequence (P80667 295-386, looked up): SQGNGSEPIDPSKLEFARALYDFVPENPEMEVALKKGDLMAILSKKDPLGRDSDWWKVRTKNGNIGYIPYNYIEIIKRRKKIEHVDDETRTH

Pin3, Q06449 = biological target: T19, Pin3, Q06449; details: median of control spots 2171
T19 sequence (Q06449 53-122, looked up): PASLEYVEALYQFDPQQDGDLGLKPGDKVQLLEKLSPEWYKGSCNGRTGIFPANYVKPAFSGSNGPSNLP

Rvs167, P39743 = details: median of control spots 2707
Sequence of Rvs167, P39743 (P39743 419-482): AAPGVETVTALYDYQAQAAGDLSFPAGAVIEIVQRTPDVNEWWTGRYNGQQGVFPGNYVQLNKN

Sho1, P40073 = details: median of control spots 1148
Sequence of Sho1, P40073 (P40073 287-367): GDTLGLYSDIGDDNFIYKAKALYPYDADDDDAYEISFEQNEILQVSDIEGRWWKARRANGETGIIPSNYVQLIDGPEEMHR

Sla1-2, P32790 = biological target: T20, Sla1-2, P32790; details: median of control spots 712
T20 sequence (P32790 60-140, looked up): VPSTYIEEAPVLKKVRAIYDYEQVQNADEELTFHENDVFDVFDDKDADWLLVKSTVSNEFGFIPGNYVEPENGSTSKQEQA

Sla1-3, P32790 = biological target: T21, Sla1-3, P32790; details: median of control spots 5475
T21 sequence (P32790 344-424, looked up): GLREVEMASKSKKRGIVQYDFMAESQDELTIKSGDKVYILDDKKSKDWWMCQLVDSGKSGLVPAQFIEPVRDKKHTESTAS

Binder | SPOT intensity (Abp1, P15891) | SPOT intensity (Bbc1, P47068) | SPOT intensity (Bem1-1, P29366) | SPOT intensity (Bem1-2, P29366) | SPOT intensity (Boi1, P38041) | SPOT intensity (Boi2, P39969) | SPOT intensity (Bud14, P27637) | SPOT intensity (Bzz1-1, P38822) | SPOT intensity (Bzz1-2, P38822) | SPOT intensity (Cdc25, P04821) | SPOT intensity (Cyk3, Q07533) | SPOT intensity (Fus1, P11710) | SPOT intensity (GST) | SPOT intensity (Hof1, Q05080) | SPOT intensity (Hse1, P38753) | SPOT intensity (Lsb1, P53281) | SPOT intensity (Lsb3, P43603) | SPOT intensity (Lsb4, P32793) | SPOT intensity (Myo3, P36006) | SPOT intensity (Myo5, Q04439) | further results
RRARRQMGIPTISQV | 95 | 58 | 3 | 12 | 3 | 1 | 41 | 2 | 25 | 120 | 2 | 1 | 7 | 3 | 11 | 35 | 6 | 16 | 10 | 20 | SPOT intensity (Nbp2, Q12163): 2; SPOT intensity (Pex13, P80667): 19; SPOT intensity (Pin3, Q06449): 33; SPOT intensity (Rvs167, P39743): 2; SPOT intensity (Sho1, P40073): 79; SPOT intensity (Sla1-2, P32790): 15; SPOT intensity (Sla1-3, P32790): 14
RRRDFGAPANKRPRR | 165 | 20 | 0 | 4 | 0 | 1 | 4 | 3 | 7 | 11 | 3 | 8 | 3 | 0 | 5 | 0 | 10 | 4 | 16 | 2 | SPOT intensity (Nbp2, Q12163): 2; SPOT intensity (Pex13, P80667): 2; SPOT intensity (Pin3, Q06449): 9; SPOT intensity (Rvs167, P39743): 0; SPOT intensity (Sho1, P40073): 90; SPOT intensity (Sla1-2, P32790): 0; SPOT intensity (Sla1-3, P32790): 30
RKRRTHLRLPLIRSN | 75 | 101 | 0 | 0 | 2 | 0 | 23 | 1 | 0 | 59 | 8 | 55 | 4 | 0 | 6 | 3 | 0 | 0 | 5 | 0 | SPOT intensity (Nbp2, Q12163): 9; SPOT intensity (Pex13, P80667): 0; SPOT intensity (Pin3, Q06449): 3; SPOT intensity (Rvs167, P39743): 0; SPOT intensity (Sho1, P40073): 47; SPOT intensity (Sla1-2, P32790): 0; SPOT intensity (Sla1-3, P32790): 14
KRNRLKILLPFLEQS | 64 | 46 | 0 | 0 | 9 | 3 | 8 | 0 | 0 | 28 | 14 | 169 | 5 | 6 | 25 | 34 | 2 | 0 | 10 | 0 | SPOT intensity (Nbp2, Q12163): 22; SPOT intensity (Pex13, P80667): 11; SPOT intensity (Pin3, Q06449): 17; SPOT intensity (Rvs167, P39743): 0; SPOT intensity (Sho1, P40073): 81; SPOT intensity (Sla1-2, P32790): 0; SPOT intensity (Sla1-3, P32790): 49
NGRRRPKFRVQLSGN | 209 | 227 | 0 | 6 | 16 | 5 | 23 | 1 | 0 | 87 | 8 | 75 | 3 | 24 | 53 | 114 | 8 | 9 | 30 | 2 | SPOT intensity (Nbp2, Q12163): 63; SPOT intensity (Pex13, P80667): 5; SPOT intensity (Pin3, Q06449): 11; SPOT intensity (Rvs167, P39743): 0; SPOT intensity (Sho1, P40073): 155; SPOT intensity (Sla1-2, P32790): 5; SPOT intensity (Sla1-3, P32790): 221
RRRIAYPFYPFKKLG | 36 | 133 | 1 | 3 | 2 | 0 | 3 | 0 | 6 | 85 | 1 | 14 | 2 | 8 | 13 | 4 | 0 | 0 | 2 | 0 | SPOT intensity (Nbp2, Q12163): 21; SPOT intensity (Pex13, P80667): 5; SPOT intensity (Pin3, Q06449): 0; SPOT intensity (Rvs167, P39743): 0; SPOT intensity (Sho1, P40073): 25; SPOT intensity (Sla1-2, P32790): 0; SPOT intensity (Sla1-3, P32790): 21
